# Results published in publication doi:10.1101/255976.
# How the values were obtained:
# BRCA1 = BRCA1 (human, UniProt P38398 1-1863); experiment: EMSA
# BRCA1;BARD1 = BRCA1;BARD1 (human;human, UniProt P38398;Q99728 1-1863;1-777, |); experiment: EMSA
binder,measurement,setting,value
50 bp DNA:RNA hybrid X12-3 DNA/X12-4C RNA (DNA:RNA) DNA: GACGTCATAGACGATTACATTGCTAGGACATGCTGTCTAGAGACTATCGC RNA: GCGAUAGUCUCUAGACAGCAUGUCCUAGCAAUGUAAUCGUCUAUGACGUC,binding result,BRCA1,binds
same,binding result,BRCA1;BARD1,binds
